B1: TGase from S. mobaraense (wild type) (protein)
chain: DSDDRVTPPAEPLDRMPDPYRPSYGRAETVVNNYIRKWQQVYSHRDGRKQQMTEEQREWLSYGCVGVTWVNSGQYPTNRLAFASFDEDRFKNELKNGRPRSGETRAEFEGRVAKESFDEEKGFQRAREVASVMNRALENAHDESAYLDNLKKELANGNDALRNEDARSPFYSALRNTPSFKERNGGNHDPSRMKAVIYSKHFWSGQDRSSSADKRKYGDPDAFRPAPGTGLVDMSRDRNIPRSPTSPGEGFVNFDYGWFGAQTEADADKTVWTHGNHYHAPNGSLGAMHVYESKFRNWSEGYSDFDRGAYVITFIPKSWNTAPDKVKQGWP
B2: TGase from Streptoverticillium ladakanum (protein)
chain: DSDERVTPPAEPLDRMPDPYRPSYGRAETIVNNYIRKWQQVYSHRDGRKQQMTEEQREWLSYGCVGVTWVNSGQYPTNRLAFAFFDEDKYKNELKNGRPRSGETRAEFEGRVAKDSFDEAKGFQRARDVASVMNKALENAHDEGAYLDNLKKELANGNDALRNEDARSPFYSALRNTPSFKDRNGGNHDPSKMKAVIYSKHFWSGQDRSGSSDKRKYGDPEAFRPDRGTGLVDMSRDRNIPRSPTSPGESFVNFDYGWFGAQTEADADKTVWTHGNHYHAPNGSLGAMHVYESKFRNWSDGYSDFDRGAYVVTFVPKSWNTAPDKVKQGWP

What was measured:
[1] = molecular target: hGH mutant Q40N, P01241
[2] = molecular target: hGH mutant Q141N, P01241
Chain of hGH mutant Q141N, P01241 (P01241 27-217 Q167N): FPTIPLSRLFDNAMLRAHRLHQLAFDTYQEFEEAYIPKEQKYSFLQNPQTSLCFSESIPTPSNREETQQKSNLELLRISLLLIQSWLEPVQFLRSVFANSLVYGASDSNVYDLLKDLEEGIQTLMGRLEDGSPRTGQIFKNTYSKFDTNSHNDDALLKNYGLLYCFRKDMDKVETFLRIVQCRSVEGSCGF

Chain of hGH mutant Q40N, P01241 (P01241 27-217 Q66N): as the sequence (P01241 27-217 Q167N) above, with Q40N, N141Q counted along it

Row | Protein | HPLC peak area of product-Q141 [1] | Q40N (remaining substrate, normalized to 100) (normalized peak area (sum 100)) [1] | product-Q141 (normalized to 100) (normalized peak area (sum 100)) [1] | HPLC peak area of product-Q40 [2] | Q141N (remaining substrate, normalized to 100) (normalized peak area (sum 100)) [2] | product-Q40 (normalized to 100) (normalized peak area (sum 100)) [2]
1 | B1 | The first peak (26.9 min, area 1283) is product-Q141 | 29 | 71 | The first peak (19.5 min, area 296) is product-Q40 | 81 | 19
2 | B2 | The first peak (26.5 min, area 1238) is product-Q141 | 23 | 77 | The first peak (19.2 min, area 127) is product-Q40 | 90 | 10
